Drawing on patent US20090311265A1, this text covers OD 492 nm for one molecule.

The target of test [1] is recombinant HA, subtype H7 (A/Netherlands/219/03 (H7N7)) (influenza A virus A/Netherlands/219/03 (H7N7)). The experiment in a line: ELISA, coated HA, IgG 5 µg/ml.
Test [2] deals with recombinant HA, subtype H9 (A/Hong Kong/1073/99 (H9N2)) (influenza A virus A/Hong Kong/1073/99 (H9N2)). Briefly: ELISA, coated HA, IgG 5 µg/ml.

B1: CR6329 (antibody, V domains shown)
VH: EVQLVQSGAEVKKPGSSVKVSCKASGGIFRSNSISWVRQAPGQGLEWMGGIFALFGTTDYAQKFQGRVTITADESSTTVYLELSSLTSEDTAVYYCARGSGYTTRNYFDYWGQGTLVTVSS
VL: EIVLTQSPGTLSLSPGERATLSCRASQSVSSNYLGWYQQKPGQAPRLLIYGASSRASGIPDRFSGGGSGTDFTLTISRLEPEDFAVYYCQQYGSSPLTFGGGTKVEIKR
B1: the OD 492 nm was found to be 0.17 OD 492 nm in test [1] and 2.16 OD 492 nm in test [2].
